Measurements: US20150030609A1, “DIAGNOSIS AND TREATMENT OF TRAUMATIC BRAIN INJURY” (UNIVERSITY OF SOUTH FLORIDA, priority 2011, published 2015)
Entries after “also recorded” stand apart in the source; their conditions may differ.

Tests used:
[1] = test system: primary oligodendrocyte (OL) cultures; test: LDH assay of cell death in primary oligodendrocyte cultures exposed to normoxia or OGD with recombinant CCL20; assay type: cell-based, rat
Description: Mixed glial cultures were prepared from postnatal day 2 rats and oligodendrocytes (OL) cultures were purified using the shaking and differential adherence method as previously described (26). Cell preparations were seeded (1.5×10^7) into flasks, OLs were purified from these preparations after 8 DIV and plated onto glass poly-l-lysine-treated coverslips. Following a 7 day proliferation period, the PDGF-AA was withdrawn for 5 days to induce OL differentiation into the mature phenotype. Experiments were conducted within three weeks.
Primary cells previously seeded onto glass coverslips were randomly assigned to one of five conditions: OGD (DMEM without glucose)+vehicle, OGD+CCL20 (200 ng; Rad Systems, Minneapolis, Minn.), normoxia (DMEM with glucose) only, normoxia+vehicle, or normoxia+CCL20. Cells undergoing OGD were placed in an airtight hypoxic chamber. The chamber was then flushed with hypoxic gas (95% N2, 4% CO2, 1% O2; Airgas, Tampa, Fla.) for 15 min and […] for the duration of exposure. Normoxic cells were maintained in a standard tissue culture incubator. Cultures were subjected to OGD or normoxia for 24 h at 37° C. The medium from each well was collected, clarified by centrifugation, and lactate dehydrogenase (LDH) analyzed immediately.
Cell death in culture was determined using the lactate dehydrogenase (LDH) assay (Takara Bio, Inc., Madison, Wis.). Briefly, 100 μl of tissue culture medium from each experimental group was added to a 96-well plate and 100 μl of LDH reagent was added to each well. Plates were incubated for 30 min at 25° C. and absorbances were read on a microplate reader at a 548 nm wavelength. The absorbance of medium only wells was subtracted from the total absorbance of each experimental treatment group to control for background LDH activity.
Briefly, rat primary neurons or OLs were exposed to normoxia or OGD in the presence of 200 ng recombinant CCL20 or vehicle. Following the exposure, culture medium was collected and the LDH assay was performed to assess cellular death.

[2] = test system: primary neuronal cultures; test: LDH assay of cell death in primary neuronal cultures exposed to normoxia or OGD with recombinant CCL20; assay type: cell-based, rat; conditions: 200 ng recombinant CCL20, 24 h
Description: Cortices from E18 rat embryos were dissociated with a solution of 0.25% trypsin/2.21 mM EDTA for 10 min at 37° C. The solution was triturated to obtain a uniform single cell suspension. After centrifugation, the supernatant was aspirated off and the cells were re-suspended in DMEM (Mediatech, Mannasas, Va.). Trypan blue exclusion was used to count viable cells and 3×10^5 cells in a final volume of 1 mL were seeded on 24 well poly-L-lysine treated culture plates. After 24 h, the medium was changed to neurobasal complete (neurobasal medium (Invitrogen), B-27 (Invitrogen), 0.05 mM L-glutamine (Mediatech) and cells were cultured for 7 days. Cells were used for oxygen glucose deprivation (OGD) experiments following one medium change, as determined by experimental grouping.
Primary cells previously seeded onto glass coverslips were randomly assigned to one of five conditions: OGD (DMEM without glucose)+vehicle, OGD+CCL20 (200 ng; Rad Systems, Minneapolis, Minn.), normoxia (DMEM with glucose) only, normoxia+vehicle, or normoxia+CCL20. […] The medium from each well was collected, clarified by centrifugation, and lactate dehydrogenase (LDH) analyzed immediately.
Cell death in culture was determined using the lactate dehydrogenase (LDH) assay (Takara Bio, Inc., Madison, Wis.). […] Plates were incubated for 30 min at 25° C. and absorbances were read on a microplate reader at a 548 nm wavelength. […]

Which results are given for “CCL20: recombinant CC chemokine ligand 20 (CCL20, MIP-3α), purchased chemokine applied at 200 ng to cultured cells”?
LDH release / cellular toxicity in OL cultures ([1]; normoxia, 200 ng recombinant CCL20, 24 h, vs normoxia without CCL20): elicited toxicity to OLs; also recorded: increased LDH release; LDH release / cell death in OL cultures ([1]; oxygen glucose deprivation (OGD), 200 ng recombinant CCL20, 24 h, relative to OGD alone): significantly increased; also recorded: further enhanced OGD-induced cellular toxicity; toxicity to cultured oligodendrocytes ([1]; summary statement, conditions not given): toxic to cultured oligodendrocytes; LDH release / neuronal viability ([2]; normoxia): did not affect neuronal viability; also recorded: had no effect; LDH release / cell death in neurons ([2]; oxygen glucose deprivation (OGD), relative to OGD alone): significantly increased; also recorded: increased lactate dehydrogenase (LDH) release
